Data on four molecules can be found in patent US20220153832A1 (PIONYR IMMUNOTHERAPEUTICS, published 2022).

For assay [1], the target named is T1, Mouse MARCO, full length, on cells (mouse, UniProt Q60754 1-518).
T1 construct: whole, on cells; the cell type is named under assay; also called muMARCO; MuMARCO
T1 sequence (looked up): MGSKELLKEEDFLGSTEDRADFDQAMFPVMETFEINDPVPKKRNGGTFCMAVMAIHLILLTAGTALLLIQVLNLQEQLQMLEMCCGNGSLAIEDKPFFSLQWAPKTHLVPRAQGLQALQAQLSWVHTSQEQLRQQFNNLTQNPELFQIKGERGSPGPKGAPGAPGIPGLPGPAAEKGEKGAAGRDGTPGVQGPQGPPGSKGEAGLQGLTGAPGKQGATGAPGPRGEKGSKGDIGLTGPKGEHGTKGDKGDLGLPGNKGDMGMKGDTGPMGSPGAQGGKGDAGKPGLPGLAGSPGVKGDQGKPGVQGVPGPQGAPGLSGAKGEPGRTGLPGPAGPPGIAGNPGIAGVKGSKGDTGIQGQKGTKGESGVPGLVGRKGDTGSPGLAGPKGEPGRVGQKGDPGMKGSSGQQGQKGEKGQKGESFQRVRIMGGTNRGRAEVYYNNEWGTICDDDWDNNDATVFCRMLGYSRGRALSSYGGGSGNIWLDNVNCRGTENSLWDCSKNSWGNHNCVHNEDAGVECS
In words: flow cytometry, 293T cells expressing mouse MARCO. As for the experimental part: Supernatants were removed and cell pellets were resuspended in Ca²⁺+ and Mg²⁺+ Dulbecco's phosphate-buffered saline (D-PBS) at 1×10⁶ cells/ml. 100,000 cells/well were plated onto U-bottom 96-well plates for staining and all centrifugation steps were performed at 1500 rpm at 4° C. for 5 min and samples were kept protected from light throughout the protocol. Cells were pelleted and resuspended in 100 μl of Zombie NIR viability dye (BioLegend) prepared by diluting Zombie NIR dimethyl sulfoxide (DMSO) stock 1000-fold in D-PBS. […] Flow cytometry data were analyzed using FlowJo software (version 10.6.1) and data were processed and further analyzed in Microsoft Excel and GraphPad Prism software (version 8). Half-maximal effective concentrations (EC₅₀) were calculated based on geometric mean fluorescence intensities (gMFI). In case when the plates were not able to be analyzed on the cytometer, cells were pelleted after the washes and fixed in 100 μl of 2% paraformaldehyde (PFA), prepared by diluting the 16% (w/v) stock (Thermo Fisher) in DPBS, for 15 min at RT. […]
Background: A flow cytometer gives signals particle by particle.

In assay [2] the target is T2, N-terminally polyhistidine tagged human MARCO ECD (147-520), recombinant (human, UniProt Q9UEW3 147-520).
T2 construct: also called PI-RG-3000; recombinant human MARCO; not shown: N-terminal polyhistidine tag
T2 sequence: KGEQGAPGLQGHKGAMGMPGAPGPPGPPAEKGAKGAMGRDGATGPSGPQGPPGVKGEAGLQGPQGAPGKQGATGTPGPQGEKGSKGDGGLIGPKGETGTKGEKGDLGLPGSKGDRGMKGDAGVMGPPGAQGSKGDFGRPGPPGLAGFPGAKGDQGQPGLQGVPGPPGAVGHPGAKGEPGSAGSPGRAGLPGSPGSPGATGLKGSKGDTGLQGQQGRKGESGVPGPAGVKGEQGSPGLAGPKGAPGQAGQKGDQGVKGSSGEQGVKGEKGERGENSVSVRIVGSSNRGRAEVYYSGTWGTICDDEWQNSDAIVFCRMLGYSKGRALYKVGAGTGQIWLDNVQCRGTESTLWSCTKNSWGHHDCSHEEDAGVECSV
In words: ELISA on recombinant human MARCO, 2 mM EDTA. The protocol: (§1) After the plates were incubated at room temperature for 1 hour or 4° C. overnight, the plates were wash 3 times with ELISA wash buffer (PBS/0.05% TWEEN-20), then hybridoma supernatant (1:5 dilution) or purified antibody (1 ug) was diluted in DPBS/Ca2+/2% FBS, DPBS without Ca2+/2 mM EDTA/2% FBS, DPBS without Ca2+/10 mM EDTA/2% FBS, and DPBS without Ca2+/50 mM EDTA/2% FBS. Plates again were incubated at room temperature for 1 hour.

Assay [3] concerns the target T2, N-terminally polyhistidine tagged human …. The assay is described as follows: ELISA on recombinant human MARCO, 0 mM EDTA. As for the experimental part:
as §1

One may read the EC50 as the concentration needed to bring the measured effect to its halfway point. Higher therefore signals a need for much substance.

B1: PI-HX-3021 (antibody, V domains shown)
VH: QVRLVQSGTALVRPGASVRMSCTASGYSFTDYWVSWVKQSHGQSLEWIGEIYPNSGTTNFNEKFEGKATLTVDKSTSTAYMELSRLTSEDSAIYYCTGEGTFDYWGQGVMVTVSS
VL: EIVLTQSPTTMAASPGEKVTITCRPSSSLSNMHWFQQKSGTSPKPWIYDTSKLASGVPDRFSGSGSGTSYSLTISSMEAEDAATYYCLQRSSYPPTFGAGTKLELK
notes: Rat IgG2a hybridoma antibody; Not the effector dead PI-3021; also called PI-3007 (name of the recombinant form)
In assay [1], B1 showed an EC50 of 0.47 to 0.75 nM.

B2: PI-HX-3016 (antibody, rat IgG1, V domains shown)
VH: EVQLVESGGGLVKPGASLKLSCVASGFTFSDDWMNWVRQTPGKAMEWIGDIKYDGSYTNYVPSLKNRLTISRDNAKNTLYLQMTNVRSEDTATYYCTSGGVFDYWGQGVMVTVSS
VL: EIVLSQSPTTMAASPGEKVTITCRASSSVSYMHWFQQKSGTSPKPWIYDTSKLASGVPDRFSGSGSGTSYSLTISSMEAEDAATYYCLQRSGYPPTFGAGTKLEVK
notes: Rat IgG1 hybridoma antibody
Turning to B2, the EC50 in assay [1] was in the range of 0.36 to 0.59 nM.

B3: PI-HX-3031 (antibody)
heavy: QVQLKESGPGLVQPSQTLSLTCTVSGFSLTSYHVSWVRQPPGKGLEWMGAIWTGGSIAYNSLLKSRLSISRDTSKSQVFLKMNSLQTEDTATYYCARDLSDYYSSYTSFDYWGQGVMVTVSTAETTAPSVYPLAPGTALKSNSMVTLGCLVKGYFPEPVTVTWNSGALSSGVHTFPAVLQSGLYTLTSSVTVPSSTWSSQAVTCNVAHPASSTKVDKKIVPRECNPCGCTGSEVSSVFIFPPKTKDVLTITLTPKVTCVVVDISQNDPEVRFSWFIDDVEVHTAQTHAPEKQSNSTLRSVSELPIVHRDWLNGKTFKCKVNSGAFPAPIEKSISKPEGTPRGPQVYTMAPPKEEMTQSQVSITCMVKGFYPPDIYTEWKMNGQPQENYKNTPPTMDTDGSYFLYSKLNVKKETWQQGNTFTCSVLHEGLHNHHTEKSLSHSP
light: DIQMTQSPASLSTSLGETVSIECLASEGISNDLAWYQQKSGKSPQLLIYAASRLQDGVPSRFSGSGSGTRYSLKISGMQPEDEADYFCQQSYKYPLTFGSGTKLEIKRADAAPTVSIFPPSTEQLATGGASVVCLMNNFYPRDISVKWKIDGTERRDGVLDSVTDQDSKDSTYSMSSTLSLTKADYESHNLYTCEVVHKTSSSPVVKSFNRNEC
notes: Parental rat hybridoma, rat IgG2a
For B3, the “ELISA signal (A450)” value worked out at 0.0678 in assay [2] and 1.37 in assay [3].

B4: PI-HX-3043 (antibody, rat IgG2a)
heavy: QVNLLQSRAALVKPGASVKLSCKASGYTFTDYYLHWVKQSHAKSLEWIGYINPNNAYTSYNEKFKSKATLTVDKSTNTAYMELSRLTSADSATYYCARDTTDYYNLHFAYWGQGTLVTVSSAETTAPSVYPLAPGTALKSNSMVTLGCLVKGYFPEPVTVTWNSGALSSGVHTFPAVLQSGLYTLTSSVTVPSSTWSSQAVTCNVAHPASSTKVDKKIVPRECNPCGCTGSEVSSVFIFPPKTKDVLTITLTPKVTCVVVDISQNDPEVRFSWFIDDVEVHTAQTHAPEKQSNSTLRSVSELPIVHRDWLNGKTFKCKVNSGAFPAPIEKSISKPEGTPRGPQVYTMAPPKEEMTQSQVSITCMVKGFYPPDIYTEWKMNGQPQENYKNTPPTMDTDGSYFLYSKLNVKKETWQQGNTFTCSVLHEGLHNHHTEKSLSHSP
light: DIQMTQSPASLSASLGETVSIECLTSEGISNDLAWYQQKSGKSPQLLIYDASRLEDGVPSRFSGSGSGTRYSLKISGMQTEDEADYFCQQSYKYPLTFGSGTKLEIKRADAAPTVSIFPPSTEQLATGGASVVCLMNNFYPRDISVKWKIDGTERRDGVLDSVTDQDSKDSTYSMSSTLSLTKADYESHNLYTCEVVHKTSSSPVVKSFNRNEC
notes: as for B3
For the molecule B4, the “ELISA signal (A450)” value was determined as 0.0595 in assay [2] and 1.2 in assay [3].
